Results: article PMC1904285

What was measured:
CspB (untagged) = CspB (untagged) (Bacillus subtilis, UniProt P32081 1-67); assay: EMSA
SsoSSB-Cy5 = molecular target: T1, SsoSSB-Cy5 (Sulfolobus solfataricus, UniProt Q97W73 1-148); assay: EMSA
T1 sequence: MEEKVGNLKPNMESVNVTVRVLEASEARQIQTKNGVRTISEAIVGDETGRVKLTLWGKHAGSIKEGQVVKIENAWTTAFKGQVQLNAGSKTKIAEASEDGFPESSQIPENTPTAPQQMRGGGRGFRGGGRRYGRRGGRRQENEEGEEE

[1] = molecular target: T2, His6-CspB (major cold shock protein) (Bacillus subtilis, UniProt P32081 1-67); assay: EMSA
SsoSSB = molecular target: T3, SsoSSB (Sulfolobus solfataricus, UniProt Q97W73 1-148); assay: EMSA
T3 sequence: T1 sequence

[2] = molecular target: T2, His6-CspB (major cold shock protein); assay: ITC
[3] = molecular target: T2, His6-CspB (major cold shock protein); assay: competition EMSA
[4] = molecular target: His6-CspB (major cold shock protein);SsoSSB (Bacillus subtilis;Sulfolobus …, UniProt P32081;Q97W73 1-67;1-148, |); assay: EMSA
Sequence of His6-CspB (major cold shock protein);SsoSSB (P32081 whole entry, one chain of several): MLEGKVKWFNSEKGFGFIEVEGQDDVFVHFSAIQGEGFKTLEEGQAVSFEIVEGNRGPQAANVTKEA

T2 sequence (P32081 whole entry): as the sequence (P32081 whole entry, one chain of several) above
Sequence of CspB (untagged) (P32081 whole entry): as the sequence (P32081 whole entry, one chain of several) above

B1: ONc (ssDNA)
DNA: ATCCTACTGATTGGCCAAGGTGCTG
B1: binds (CspB (untagged)); binds (SsoSSB-Cy5); binds [1]. B1: binds (SsoSSB).

B2: ITC1 (consensus variant GTCTTTG) (ssDNA)
DNA: GTCTTTG
B2: binds [2].

B3: ITC2 (consensus variant GTCTTTT) (ssDNA)
DNA: GTCTTTT
B3: binds [2].

B4: ON-Mt (ssDNA)
DNA: AAAAAAAAAAGCACTTAAAAAAAAA
B4: binds [3]; binds [4].
